The values below come from paper PMC4059916, “VARP Is Recruited on to Endosomes by Direct Interaction with Retromer, Where Together They Function in Export to the Cell Surface” (Developmental Cell, 2014).

One may read the Kd as the concentration at which binding is half-saturated.

B1: VARP fragment with the second Cys-rich motif, 4C2 (C711S/C715S/C717S/C720S), as used in ITC (domain or fragment)
chain: TEEDLEDAEDTVSAADPEFSHPLSQSPKSAPAQKRLAKVPASGLGVNVTSQDGSS
notes: VARP; source: E. coli, purified
B2: Rab32 1-225 (Q85L), GTP hydrolysis-defective mutant, GST removed (enzyme, UniProt Q13637 1-225, looked up)
chain: MAGGGAGDPGLGAAAAPAPETREHLFKVLVIGELGVGKTSIIKRYVHQLFSQHYRATIGVDFALKVLNWDSRTLVRLQLWDIAGLERFGNMTRVYYKEAVGAFVVFDISRSSTFEAVLKWKSDLDSKVHLPNGSPIPAVLLANKCDQNKDSSQSPSQVDQFCKEHGFAGWFETSAKDNINIEEAARFLVEKILVNHQSFPNEENDVDKIKLDQETLRAENKSQCC
notes: Rab32, residues 1-225; limits 1-225 are printed for the crystallised construct; also called Rab32(Q85L); Rab32Q85L
B3: VARP451-640His6 L513D (domain or fragment, human, UniProt Q96NW4 451-640, looked up)
chain: PSVVTPFSRDDRGHTPLHVAAVCGQASLIDLLVSKGAMVNATDYHGATPLHLACQKGYQSVTDLLLHYKASAEVQDNNGNTPLHLACTYGHEDCVKALVYYDVESCRLDIGNEKGDTPLHIAARWGYQGVIETLLQNGASTEIQNRLKETPLKCALNSKILSVMEAYHLSFERRQKSSEAPVQSPQRSVD
notes: source: E. coli Rosetta 2 pLysS, purified; not shown: His6, C-terminal, kept
B4: VARP451-640His6 K546D (domain or fragment, human, UniProt Q96NW4 451-640, looked up)
chain: B3 chain with D63L, K96D
notes: also called VARP(K546D); source: E. coli Rosetta 2 pLysS, purified; not shown: His6, C-terminal, kept
B5: VARP451-640His6 (first ankyrin repeat domain, ANKRD1), wild type (domain or fragment, human, UniProt Q96NW4 451-640, looked up)
chain: B3 chain with D63L
notes: VARP (VPS9-domain ankyrin repeat protein); also called VARP ANKRD1; VARP-ANKR domain 1; source: E. coli Rosetta 2 pLysS, purified (GSH-sepharose, PreScission cleavage, Ni-NTA agarose, Superdex 75); not shown: His6, C-terminal, kept
B6: VARP451-640His6 Y550A (domain or fragment, human, UniProt Q96NW4 451-640, looked up)
chain: B3 chain with D63L, Y100A
notes: also called VARP(Y550A); source: E. coli Rosetta 2 pLysS, purified; not shown: His6, C-terminal, kept

What all share (conditions): both partners purified
Assay [1] deals with VPS29, recombinant, as used in ITC (UniProt Q9UBQ0 1-182). As to the kind of experiment: ITC; recombinant VARP Cys-rich motif fragments and VPS29; who was titrated is not told. On the technique in general: In ITC the heat of successive injections is recorded.
The target in assay [2] is T1, VARP fragment, residues 397-650 (human, UniProt Q96NW4 397-650).
T1 construct: VARP (VPS9-domain ankyrin repeat protein; 1,050 residues), residues 397-650, contains ANKRD1; source: E. coli Rosetta 2 pLysS, purified (GSH-sepharose, PreScission cleavage, Superdex 75)
T1 sequence (Q96NW4 397-650): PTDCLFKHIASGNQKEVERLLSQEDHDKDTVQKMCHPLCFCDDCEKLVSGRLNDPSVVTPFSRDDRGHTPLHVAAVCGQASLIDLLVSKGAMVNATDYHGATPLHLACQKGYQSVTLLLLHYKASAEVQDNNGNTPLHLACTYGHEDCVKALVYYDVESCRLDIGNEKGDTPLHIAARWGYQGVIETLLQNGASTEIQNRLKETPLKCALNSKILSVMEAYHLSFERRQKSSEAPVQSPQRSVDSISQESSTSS
Nature of the assay: ITC; Nano ITC; VARP constructs at 60 μM in the cell at 4°C, Rab constructs at 300 μM titrated, 24 injections of 2 μl; 50 mM HEPES pH 7.4, 200 mM NaCl, 5 mM MgCl2, 1 mM TCEP.

Assay [3] addresses B2. The description is as above.
Assay [4] deals with T2, SeMet-Rab32 1-225 (Q85L/V100M/Q153M/V158M/I192M) (UniProt Q13637 1-225, Q85L | V100M | Q153M | V158M | I192M, selenomethionine (SeMet protein)).
T2 construct: Rab32 residues 1-225; also called SeMet-Rab32Q85L; source: E. coli B834, M9 media (seleno-methionine), purified
T2 sequence (looked up): B2 chain with V100M, Q153M, V158M, I192M
Nature of the assay: crystal structure; sitting drop vapor diffusion at 18°C, PEG 3350, 200 mM sodium citrate pH 8.0; molecular replacement.

Substitutions are numbered along the chain they refer to. Names and notes keep the numbering of the source.

On to B1, for which the “fold decrease in binding against the wild-type fragment” value in assay [1] is around 20 fold.
B2 displayed an equilibrium dissociation constant (Kd) in assay [2] of 7 µM.
The molecule B3 came in with a dissociation constant (Kd) in assay [3] above 300 µM.
Take B4: the Kd in assay [3] is around 8 µM.
Turning to B5, the binding result in assay [4] was “binds”. This molecule also came in with a Kd in assay [3] of 2.5 µM.
Consider B6, for which, in assay [3], the Kd is around 22 µM.
